Like-named read-outs stand apart in the source and are kept apart here.
Key:
HLA-B08.01 [1] = target: HLA-B08.01 (human); assay: pMHC-I complex dissociation at 37 C, radiolabeled b2m
HLA-A24.02 [2] = target: HLA-A24.02 (human); assay: competition with radiolabeled reference peptide on prepared MHC class I
HLA-A24.02 [3] = target: HLA-A24.02 (human); assay: pMHC-I complex dissociation at 37 C, radiolabeled b2m
[4] = target: T1, HLA-A*03:01 expressed in 293T or SW620 cells (human); assay: targeted MS/MS (PRM) of peptides eluted from HLA-peptide complexes, 293T cells
T1 construct: whole, on cells; HLA of cells from which peptides were eluted for MS/MS
Protocol: To assess whether antigens could be processed and presented from the larger polypeptide context, peptides eluted from HLA molecules isolated from cells expressing the genes of interest were analyzed by tandem mass spectrometry (MS/MS).
For analysis of presentation of RAS neoantigens, cell lines were utilized that have RAS mutations naturally or were lentivirally transduced to express the mutated RAS gene. HLA molecules were either isolated based on the natural expression of the cell lines or the cell lines were lentivirally transduced or transiently transfected to express the HLA of interest. […] Eluted peptides were then analyzed by targeted MS/MS with parallel reaction monitoring (PRM).

HLA-A11.01 = HLA-A11.01 (human); assay: competition with radiolabeled reference peptide on prepared MHC class I
HLA-A03.01 [5] = target: HLA-A03.01 (human); assay: as above
HLA-A01.01 [6] = target: T2, HLA-A01.01 (human); assay: as above
T2 construct: in the stability assay the heavy chain is biotinylated and b2m iodine-labeled

HLA-A03.01 [7] = target: HLA-A03.01 (human); assay: pMHC-I complex dissociation at 37 C, radiolabeled b2m
HLA-A01.01 [8] = target: T2, HLA-A01.01; assay: as above
HLA-B08.01 [9] = target: HLA-B08.01 (human); assay: competition with radiolabeled reference peptide on prepared MHC class I
HLA-B08.01 [10] = target: HLA-B08.01 (human); assay: pMHC-I complex dissociation at 37 C, radiolabeled b2m; remark: listed apart in the source
HLA-A02.01 [11] = target: HLA-A02.01 (human); assay: competition with radiolabeled reference peptide on prepared MHC class I
HLA-A02.01 [12] = target: HLA-A02.01 (human); assay: pMHC-I complex dissociation at 37 C, radiolabeled b2m

B1: MQLMPFGCLL (peptide)
peptide: MQLMPFGCLL
For B1, which “Stability (half-life (hr.))” value (HLA-B08.01 [1]) is on record?
Its value is 0 h.

B2: EYMANGSLL (peptide)
peptide: EYMANGSLL
notes: also called BTK, C481S peptide
For B2, which “Affinity” value (HLA-A24.02 [2]) is on record?
Its value is 4.96 nM.

What about the “Stability (half-life (hr.))” value (HLA-A24.02 [3]) of the same binder?
Its value is 343 min.

B3: VVVGAVGVGK (peptide)
peptide: VVVGAVGVGK
notes: Endogenously processed RAS G12V peptide eluted from HLA-peptide complexes
Does B3 bind [4]?
Result: binds

B4: MQLMPFGCL (peptide)
peptide: MQLMPFGCL
Which “Stability (half-life (hr.))” value (HLA-B08.01 [1]) does the source give for B4 here?
Its value is 0 h.

B5: MANGSLLNY (peptide)
peptide: MANGSLLNY
notes: as for B2
With B5 as the binder, how does the “Affinity” value (HLA-A11.01) read?
Its value is 536 nM.

And the “Affinity” value (HLA-A03.01 [5])?
The value was 35.6 nM.

What about the “Affinity” value (HLA-A01.01 [6]) of the same binder?
The value was 439 nM.

What about the “Stability (half-life (hr.))” value (HLA-A03.01 [7]) of the same binder?
Its value is 14.3 min.

And the “Stability (half-life (hr.))” value (HLA-A01.01 [8])?
The value was 13 min.

B6: QLIMQLMPF (peptide)
peptide: QLIMQLMPF
How did the “Stability (half-life (hr.))” value (HLA-B08.01 [1]) turn out when B6 was run?
The value was 0 h.

B7: SLLNYLREM (peptide)
peptide: SLLNYLREM
Which “Affinity” value (HLA-B08.01 [9]) does the source give for B7 here?
The value was 960 nM.

What about the “Stability (half-life (hr.))” value (HLA-B08.01 [10]) of the same binder?
Its value is 0 h.

B8: LIMQLMPFGC (peptide)
peptide: LIMQLMPFGC
How did the “Affinity” value (HLA-A02.01 [11]) turn out when B8 was run?
Its value is 132 nM.

And the “Stability (half-life (hr.))” value (HLA-A02.01 [12])?
The value was 22.9 min.

B9: VQLIMQLMPF (peptide)
peptide: VQLIMQLMPF
notes: also called VOLIMQLMPF
B9 was tested. Which “Stability (half-life (hr.))” value (HLA-B08.01 [1]) did it give?
The value was 0 h.

B10: MANGSLLNYL (peptide)
peptide: MANGSLLNYL
For B10, which “Stability (half-life (hr.))” value (HLA-B08.01 [10]) is on record?
Its value is 0 h.

B11: YMANGSLLNY (peptide)
peptide: YMANGSLLNY
notes: as for B2
Which “Affinity” value (HLA-A11.01) does the source give for B11 here?
The value was 974 nM.

What about the “Affinity” value (HLA-A03.01 [5]) of the same binder?
Its value is 95.9 nM.

What about the “Affinity” value (HLA-A01.01 [6]) of the same binder?
The value was 13.2 nM.

And the “Stability (half-life (hr.))” value (HLA-A03.01 [7])?
Its value is 16.7 min.

What about the “Stability (half-life (hr.))” value (HLA-A01.01 [8]) of the same binder?
Its value is 52 min.

B12: IMQLMPFGCL (peptide)
peptide: IMQLMPFGCL
Which “Stability (half-life (hr.))” value (HLA-B08.01 [1]) does the source give for B12 here?
Its value is 0 h.
